For assay [1], the target named is T1, human CD22 (d1 to d7 domain according to NP_001762.2) (human, UniProt P20273 20-687).
T1 construct: domain: d1 to d7 domain; also called human CD22-gly; Siglec-2
The assay can be described thus: SPR; summary table, column 'CD22 KD (nM)'. For orientation: SPR reads the build-up and loss of mass on a sensor chip optically.

In assay [2] the target is T2, cynomolgus monkey CD22 on B cells of cynomolgus PBMCs (cynomolgus monkey).
T2 construct: whole, on cells; also called cynomolgus CD22; Cyno CD22
The assay can be described thus: flow cytometry; Alexa Fluor 647-labelled antibody on CD20+ B cells of cynomolgus PBMCs. How it is done:
(§1) Binding of humanized anti-CD22 antibodies to human or cynomolgus PBMCs was measured by flow cytometry. Trima residuals were received from Vitalant and cynomolgus monkey whole blood were received from BioIVT. Both were diluted 1:4 with Phosphate Buffered Saline (PBS, Gibco). Diluted blood was split into two tubes and underplayed with 15 mL Ficoll-Paque (GE Healthcare). Tubes were centrifuged for 30 minutes at 400×g. PBMCs were collected from the interface, washed and resuspended in FACS buffer (PBS with 0.5% Bovine Serum Albumin (Gibco)). 100K PBMCs from human and cynomolgus monkey were plated in 96-well plates and pelleted by centrifugation for five minutes at 400×g and stained at 4° C. in 100 μl Fixable Viability Dye eFluor 780 (Thermo Fisher) diluted 1:4000 in PBS. Cells were centrifuged and stained at 4° C. in 100 μl FACS buffer for 30 minutes containing FcR Blocking Reagent (Miltenyi Biotec), anti-CD20 and Alexa Fluor 647 conjugated CD22 binding antibodies, which were labeled using Molecular Probes Alexa Fluor 647 Protein Labeling kit (Molecular Probes) according to manufacturer's protocol. Cells were centrifuged and washed twice in 200 μl FACS buffer and fixed in 100 μl 0.5% paraformaldehyde. Cells were analyzed on Attune NxT Flow Cytometer (Thermo Fisher), with subsequent data analysis by Flowjo 10.7 (Treestar). Dead cells were excluded by gating on the eFluor 780-negative population. CD20+ cells were gated to identify B cells and median fluorescent intensity for CD22 was determined.
(In general: A flow cytometer gives signals particle by particle.)

The target in assay [3] is T3, human CD22 on B cells of human PBMCs (human, UniProt P20273 20-847).
T3 construct: whole, on cells; also called CD22 on human B cells
Nature of the assay: flow cytometry; Alexa Fluor 647-labelled antibody on CD20+ B cells of human PBMCs. The protocol: as §1

The target of assay [4] is T1, human CD22 (d1 to d7 domain according …). The assay can be described thus: SPR; mAb supernatant captured on protein A chip, human CD22 injected. How it is done: Binding of humanized anti-CD22 antibodies to human CD22 was measured by surface plasmon resonance (SPR). For assessment of binding by SPR, biotinylated protein A (15 μg/mL) was immobilized to the surface of an NLC chip. 30 μL of mAb supernatant was added to 150 μL of PBS-T and captured over the protein A surface. Serial dilutions of human CD22-gly (300 nM, 3× dilution) were injected over the mAb-coated chips, and binding kinetics were determined. Chips were regenerated using 4:1 v/v of Pierce IgG elution butter/4M NaCl.

The target is the same in assay [5]. Nature of the assay: SPR; purified naked mAb captured on protein A chip, human CD22 injected. The protocol:
To assess if CpG conjugation affects the binding of respective humanized anti-CD22 to human CD22, SPR assay was carried out. […] Briefly, biotinylated protein A (15 μg/mL) was immobilized to the surface of an NLC chip. 30 nM of purified naked mAb or CpG conjugated mAb solution in PBS-T was used for capture over the protein A surface. Serial dilutions of human CD22 (300 nM, 3× dilution) were injected over the mAb-coated chips, and binding kinetics were determined. Chips were regenerated using 4:1 v/v of Pierce IgG elution butter/4M NaCl.

In assay [6] the target is T3, human CD22 on B cells of human PBMCs. Nature of the assay: flow cytometry; Alexa Fluor 647-labelled antibody, human PBMCs. The protocol: as §1
(§2) The fold increase in binding was determined by calculating the ratio of CD22 median fluorescent intensity on CD20⁺ over CD20⁻ cells.

For assay [7], the target named is T2, cynomolgus monkey CD22 on B cells of …. Nature of the assay: flow cytometry; Alexa Fluor 647-labelled antibody, cynomolgus PBMCs. The protocol:
as §1, §2

B1: TNT71 (antibody, human IgG1, kappa, V domains shown)
VH: EVQLVESGGGLVQPGGSLRLSCAASGFTFSSYEMNWVRQAPGKGLEWVSYISSSGSTIYYADSVKGRFTISRDNAKNSLYLQMNSLRAEDTAVYYCARHSGYGTHWGVLFAYWGRGTLVTVSS
VL: DIQMTQSPSSLSASVGDRVTITCRASQDIHGYLNWYQQKPGKAPKLLIYYTSILHSGVPSRFSGSGSGTDFTLTISSLQPEDFATYFCQQGNTLPWTFGQGTKLEIKR
Usually Kd stands for the free concentration of one partner at which half of the binding sites on the other are occupied at equilibrium, for simple one-to-one binding. For the molecule B1, the Kd in assay [1] came out at 0.3 nM; in assay [4], 5.2 nM; in assay [5], 0.263 nM. Besides, the “CD22 Median Fluorescent Intensity on CD20+ cells” value (“CD22 Median Fluorescent Intensity” below) turned out to be 1420 in assay [2] and 1460 in assay [3].

B2: TNT72 (antibody, human IgG1, kappa, V domains shown)
VH: QVQLQESGPGLVKPSDTLSLTCTVSGFAFSIYDMSWIRQPPGKGLEWIAYISSGGGTTYYNPSLKSRVTISVDTSKNQFSLKLSSVTAADTAVYYCARHSGYGTHWGVLFAYWGRGTLVTVSS
VL: DIQMTQSPSSLSASVGDRVTITCRASQDIHGYLNWYQQKPGKAPKLLIYYTSILHSGVPSRFSGSGSGTDFTLTISSLQPEDFATYFCQQGNTLPWTFGQGTKLEIKR
Regarding B2, the Kd in assay [1] stood at 0.7 nM; in assay [4] it was 0.655 nM; in assay [5], 0.922 nM. Also, the “CD22 Median Fluorescent Intensity” value stood at 1370 in assay [2] and 1560 in assay [3].

B3: TNT77 (antibody, human IgG1, kappa, V domains shown)
VH: EVQLVESGGGLVQPGGSLRLSCAASGFAFSIYDMSWVRQAPGKGLEWVAYISSGGGTTYYPDTVKGRFTISRDNSKNTLYLQMNSLRAEDTAVYYCARHSGYGTHWGVLFAYWGRGTLVTVSS
VL: DIQMTQSPSSLSASVGDRVTITCRASQSISSYLNWYQQKPGKAPKLLIYAASSLQSGVPSRFSGSGSGTDFTLTISSLQPEDFATYYCQQGNTLPWTFGQGTKLEIKR
The koff is the rate constant with which the complex falls apart. The term kon denotes the rate constant with which the complex forms. Regarding B3, the “CD22: CD20+/CD20- (ratio of median fluorescent intensity)” value is 20.9 fold in assay [6] and 2.6 fold in assay [7]. In addition, the Kd in assay [1] is 10 nM; in assay [4] it was 10.2 nM. For the same molecule, the “CD22 Median Fluorescent Intensity” value in assay [2] was found to be 236; in assay [3] it was 1320. The koff in assay [4] stood at 0.00207 s⁻¹. Moreover, the kon in assay [4] was 203000 M⁻¹ s⁻¹.

B4: TNT88 (antibody, human IgG1, kappa, V domains shown)
VH: QVQLQESGPGLVKPSDTLSLTCTVSGFAFSIYDMSWIRQPPGKGLEWIAYISSGGGTTYYNPSLKSRVTISVDTSKNQFSLKLSSVTAADTAVYYCARHSGYGTHWGVLFAYWGRGTLVTVSS
VL: DIVMTQTPLSLSVTPGQPASISCRASQDIHGYLNWYQQKPGQSPQLLIYYTSILHSGVPDRFSGSGSGTDFTLKISRVEAEDVGVYFCQQGNTLPWTFGGGTKLEIKR
Consider B4, for which the “CD22: CD20+/CD20- (ratio of median fluorescent intensity)” value in assay [6] came to 26.2 fold; in assay [7] it was 14.7 fold. Further, the Kd amounted to 1.3 nM in assay [1] and 1.34 nM in assay [4]. Also, the “CD22 Median Fluorescent Intensity” value in assay [2] was 1270; in assay [3] it was 1530. In assay [4], this molecule displayed an off-rate constant (koff) of 0.000289 s⁻¹. Moreover, in assay [4], the kon was determined as 215000 M⁻¹ s⁻¹.

Source of the values: patent US20220380768A1 (TALLAC THERAPEUTICS, published 2022).
